Reference: patent publication US20080213281A1, “Butyrylcholinesterase Variants that Alter the Activity of Chemotherapeutic Agents” (priority 2002, published 2008)
“Also recorded” adds a separate entry of the source.

Experiment: HPLC assay of CPT-11 conversion to SN-38 by conditioned media of transiently expressed BChE variants
Type: biochemical
Conditions: for SN-38 formation from CPT-11 (in words): conditioned media, HPLC, compared to mock or wild-type; for Fold improvement in CPT-11 conversion: compared to wild-type butyrylcholinesterase, conditioned media exposed to 20 mM CPT-11 for 72 hours at 37° C., conservative values
Experimental: Butyrylcholinesterase variants were assayed for CPT-11 conversion activity using fluorescent High Performance Liquid Chromotography (HPLC) detection of SN-38 formation as described in Dodds and Rivory, Mol. Pharmacol. 56:1346-1353 (1999), which is incorporated herein by reference. Briefly, conditioned media from transiently expressed BChE variants were exposed to 20 mM CPT-11 for 72 hours at 37° C. and analyzed by HPLC for SN-38 formation (peak at about 4 minutes column retention time).

B1: F227A (protein)
chain: EDDIIIATKNGKVRGMNLTVFGGTVTAFLGIPYAQPPLGRLRFKKPQSLTKWSDIWNATKYANSCCQNIDQSFPGFHGSEMWNPNTDLSEDCLYLNVWIPAPKPKNATVLIWIYGGGFQTGTSSLHVYDGKFLARVERVIVVSMNYRVGALGFLALPGNPEAPGNMGLFDQQLALQWVQKNIAAFGGNPKSVTLFGESAGAASVSLHLLSPGSHSLFTRAILQSGSXNAPWAVTSLYEARNRTLNLAKLTGCSRENETEIIKCLRNKDPQEILLNEAFVVPYGTPLSVNFGPTVDGDFLTDMPDILLELGQFKKTQILVGVNKDEGTAFLVYGAPGFSKDNNSIITRKEFQEGLKIFFPGVSEFGKESILFHYTDWVDDQRPENYREALGDVVGDYNFICPALEFTKKFSEWGNNAFFYYFEHRSSKLPWPEWMGVMHGYEIEFVFGLPLERRDNYTKAEEILSRSIVKRWANFAKYGNPNETQNNSTSWPVFKSTEQKYLTLNTESTRIMTKLRAQQCRFWTSFFPKVLEMTGNIDEAEWEWKAGFHRWNNYMMDWKNQFNDYTSKKESCVGL
modifications: Synthetic butyrylcholinesterase variant; VARIANT (227)..(227): Xaa = Ala
SN-38 formation from CPT-11 (in words): produced a small amount of SN-38; also recorded: increased CPT-11 conversion to SN-38

B2: F227A/L286S (protein)
chain: EDDIIIATKNGKVRGMNLTVFGGTVTAFLGIPYAQPPLGRLRFKKPQSLTKWSDIWNATKYANSCCQNIDQSFPGFHGSEMWNPNTDLSEDCLYLNVWIPAPKPKNATVLIWIYGGGFQTGTSSLHVYDGKFLARVERVIVVSMNYRVGALGFLALPGNPEAPGNMGLFDQQLALQWVQKNIAAFGGNPKSVTLFGESAGAASVSLHLLSPGSHSLFTRAILQSGSXNAPWAVTSLYEARNRTLNLAKLTGCSRENETEIIKCLRNKDPQEILLNEAFVVPYGTPSSVNFGPTVDGDFLTDMPDILLELGQFKKTQILVGVNKDEGTAFLVYGAPGFSKDNNSIITRKEFQEGLKIFFPGVSEFGKESILFHYTDWVDDQRPENYREALGDVVGDYNFICPALEFTKKFSEWGNNAFFYYFEHRSSKLPWPEWMGVMHGYEIEFVFGLPLERRDNYTKAEEILSRSIVKRWANFAKYGNPNETQNNSTSWPVFKSTEQKYLTLNTESTRIMTKLRAQQCRFWTSFFPKVLEMTGNIDEAEWEWKAGFHRWNNYMMDWKNQFNDYTSKKESCVGL
modifications: Synthetic butyrylcholinesterase variant; VARIANT (227)..(227): Xaa = Ala; VARIANT (286)..(286): L286S
Fold improvement in CPT-11 conversion: >50 fold | Fold improvement in CPT-11 conversion (listed as F227A/L268S): ≥ 50 fold | SN-38 formation from CPT-11 (in words): significant conversion; also recorded: increased CPT-11 conversion to SN-38

B3: F227A/L286W (protein)
chain: EDDIIIATKNGKVRGMNLTVFGGTVTAFLGIPYAQPPLGRLRFKKPQSLTKWSDIWNATKYANSCCQNIDQSFPGFHGSEMWNPNTDLSEDCLYLNVWIPAPKPKNATVLIWIYGGGFQTGTSSLHVYDGKFLARVERVIVVSMNYRVGALGFLALPGNPEAPGNMGLFDQQLALQWVQKNIAAFGGNPKSVTLFGESAGAASVSLHLLSPGSHSLFTRAILQSGSANAPWAVTSLYEARNRTLNLAKLTGCSRENETEIIKCLRNKDPQEILLNEAFVVPYGTPWSVNFGPTVDGDFLTDMPDILLELGQFKKTQILVGVNKDEGTAFLVYGAPGFSKDNNSIITRKEFQEGLKIFFPGVSEFGKESILFHYTDWVDDQRPENYREALGDVVGDYNFICPALEFTKKFSEWGNNAFFYYFEHRSSKLPWPEWMGVMHGYEIEFVFGLPLERRDNYTKAEEILSRSIVKRWANFAKYGNPNETQNNSTSWPVFKSTEQKYLTLNTESTRIMTKLRAQQCRFWTSFFPKVLEMTGNIDEAEWEWKAGFHRWNNYMMDWKNQFNDYTSKKESCVGL
modifications: Synthetic butyrylcholinesterase variant; VARIANT (227)..(227): F227A; VARIANT (286)..(286): L286W
Fold improvement in CPT-11 conversion: >42 fold | SN-38 formation from CPT-11 (in words): increased CPT-11 conversion to SN-38

B4: F227A/T284A (protein)
chain: EDDIIIATKNGKVRGMNLTVFGGTVTAFLGIPYAQPPLGRLRFKKPQSLTKWSDIWNATKYANSCCQNIDQSFPGFHGSEMWNPNTDLSEDCLYLNVWIPAPKPKNATVLIWIYGGGFQTGTSSLHVYDGKFLARVERVIVVSMNYRVGALGFLALPGNPEAPGNMGLFDQQLALQWVQKNIAAFGGNPKSVTLFGESAGAASVSLHLLSPGSHSLFTRAILQSGSXNAPWAVTSLYEARNRTLNLAKLTGCSRENETEIIKCLRNKDPQEILLNEAFVVPYGXPLSVNFGPTVDGDFLTDMPDILLELGQFKKTQILVGVNKDEGTAFLVYGAPGFSKDNNSIITRKEFQEGLKIFFPGVSEFGKESILFHYTDWVDDQRPENYREALGDVVGDYNFICPALEFTKKFSEWGNNAFFYYFEHRSSKLPWPEWMGVMHGYEIEFVFGLPLERRDNYTKAEEILSRSIVKRWANFAKYGNPNETQNNSTSWPVFKSTEQKYLTLNTESTRIMTKLRAQQCRFWTSFFPKVLEMTGNIDEAEWEWKAGFHRWNNYMMDWKNQFNDYTSKKESCVGL
modifications: Synthetic butyrylcholinesterase variant; VARIANT (227)..(227): Xaa = Ala; VARIANT (284)..(284): Xaa = Ala
Fold improvement in CPT-11 conversion: >7 fold | SN-38 formation from CPT-11 (in words): increased CPT-11 conversion to SN-38

B5: F227A/L286Q (protein)
chain: EDDIIIATKNGKVRGMNLTVFGGTVTAFLGIPYAQPPLGRLRFKKPQSLTKWSDIWNATKYANSCCQNIDQSFPGFHGSEMWNPNTDLSEDCLYLNVWIPAPKPKNATVLIWIYGGGFQTGTSSLHVYDGKFLARVERVIVVSMNYRVGALGFLALPGNPEAPGNMGLFDQQLALQWVQKNIAAFGGNPKSVTLFGESAGAASVSLHLLSPGSHSLFTRAILQSGSXNAPWAVTSLYEARNRTLNLAKLTGCSRENETEIIKCLRNKDPQEILLNEAFVVPYGTPQSVNFGPTVDGDFLTDMPDILLELGQFKKTQILVGVNKDEGTAFLVYGAPGFSKDNNSIITRKEFQEGLKIFFPGVSEFGKESILFHYTDWVDDQRPENYREALGDVVGDYNFICPALEFTKKFSEWGNNAFFYYFEHRSSKLPWPEWMGVMHGYEIEFVFGLPLERRDNYTKAEEILSRSIVKRWANFAKYGNPNETQNNSTSWPVFKSTEQKYLTLNTESTRIMTKLRAQQCRFWTSFFPKVLEMTGNIDEAEWEWKAGFHRWNNYMMDWKNQFNDYTSKKESCVGL
modifications: Synthetic butyrylcholinesterase variant; VARIANT (227)..(227): Xaa = Ala; VARIANT (286)..(286): L286Q
Fold improvement in CPT-11 conversion: >10 fold | SN-38 formation from CPT-11 (in words): increased CPT-11 conversion to SN-38

B6: F227A/L286H (protein)
chain: EDDIIIATKNGKVRGMNLTVFGGTVTAFLGIPYAQPPLGRLRFKKPQSLTKWSDIWNATKYANSCCQNIDQSFPGFHGSEMWNPNTDLSEDCLYLNVWIPAPKPKNATVLIWIYGGGFQTGTSSLHVYDGKFLARVERVIVVSMNYRVGALGFLALPGNPEAPGNMGLFDQQLALQWVQKNIAAFGGNPKSVTLFGESAGAASVSLHLLSPGSHSLFTRAILQSGSXNAPWAVTSLYEARNRTLNLAKLTGCSRENETEIIKCLRNKDPQEILLNEAFVVPYGTPHSVNFGPTVDGDFLTDMPDILLELGQFKKTQILVGVNKDEGTAFLVYGAPGFSKDNNSIITRKEFQEGLKIFFPGVSEFGKESILFHYTDWVDDQRPENYREALGDVVGDYNFICPALEFTKKFSEWGNNAFFYYFEHRSSKLPWPEWMGVMHGYEIEFVFGLPLERRDNYTKAEEILSRSIVKRWANFAKYGNPNETQNNSTSWPVFKSTEQKYLTLNTESTRIMTKLRAQQCRFWTSFFPKVLEMTGNIDEAEWEWKAGFHRWNNYMMDWKNQFNDYTSKKESCVGL
modifications: Synthetic butyrylcholinesterase variant; VARIANT (227)..(227): Xaa = Ala; VARIANT (286)..(286): L286H
Fold improvement in CPT-11 conversion: >35 fold | SN-38 formation from CPT-11 (in words): increased CPT-11 conversion to SN-38
